The labels stand for the following.
B1: Membrane-associated guanylate kinase, WW and PDZ domain-containing protein 2, residues 601 to 682; numbered along this chain, Q86UL8 (parent)
chain: AELMTLTIVKGAQGFGFTIADSPTGQRVKQILDIQGCPGLCEGDLIVEINQQNVQNLSHTEVVDILKDCPIGSETSLIIHRG

The values that follow come from the Human Domainome abundance scans (Beltran et al. 2025).

± gives the uncertainty stated by the source.

In the data set the parent is B1. Briefly: abundance fitness (aPCA) (normalised: wild type 0, dead -1); higher = more abundant; growth selection in yeast, the domain comes from the species named. As to conditions: Homo sapiens.
For Q52R, the abundance fitness is -0.007 ± 0.037.

As for Q52W, the abundance fitness is -0.095 ± 0.049.

For the variant Q52M, the abundance fitness is 0.01 ± 0.045.

Take Q52K: the abundance fitness was 0.049 ± 0.048.

For the variant Q52V, the abundance fitness was -0.039 ± 0.039.

For the variant Q52Y, the abundance fitness is -0.024 ± 0.05.

In the case of Q52N, the abundance fitness turned out to be 0.017 ± 0.046.

On to Q52S, for which the abundance fitness was -0.037 ± 0.037.

In the case of Q52T, the abundance fitness is -0.018 ± 0.038.

Q52L: the abundance fitness is -0.072 ± 0.03.

Regarding N56L, the abundance fitness is -0.051 ± 0.069.

N56M: the abundance fitness is -0.06 ± 0.11.

Consider N56V, for which the abundance fitness was -0.128 ± 0.094.

Take N56G: the abundance fitness was determined as 0.003 ± 0.079.

Regarding N56C, the abundance fitness is -0.326 ± 0.22.

Consider N56W, for which the abundance fitness worked out at 0.197 ± 0.28.

Take N56R: the abundance fitness is -0.036 ± 0.052.

With N56Q, the abundance fitness was -0.099 ± 0.12.

Take N56T: the abundance fitness was -0.03 ± 0.11.

Consider N56S, for which the abundance fitness is -0.053 ± 0.1.

For the variant N56F, the abundance fitness was -0.099 ± 0.25.

As for N56Y, the abundance fitness turned out to be 0.074 ± 0.42.

Turning to N56E, the abundance fitness was found to be 0.221 ± 0.23.

On to N56A, for which the abundance fitness is -0.076 ± 0.071.

With N56K, the abundance fitness was -0.046 ± 0.095.

Regarding N56P, the abundance fitness came out at 0.072 ± 0.1.

Take C69H: the abundance fitness was -0.329 ± 0.2.

As for C69R, the abundance fitness was -0.08 ± 0.08.

For the variant C69N, the abundance fitness is -0.195 ± 0.16.

With C69P, the abundance fitness is -0.421 ± 0.22.

Consider C69A, for which the abundance fitness is -0.029 ± 0.07.

Turning to C69T, the abundance fitness is 0.085 ± 0.11.

C69Q: the abundance fitness was -0.125 ± 0.13.

Consider C69L, for which the abundance fitness was -0.064 ± 0.11.

C69G: the abundance fitness is -0.059 ± 0.061.

For the variant C69D, the abundance fitness is -0.27 ± 0.13.

With C69S, the abundance fitness turned out to be 0.177 ± 0.18.

C69E: the abundance fitness was -0.086 ± 0.094.

On to C69V, for which the abundance fitness was -0.03 ± 0.065.

On to C69M, for which the abundance fitness was -0.102 ± 0.12.

For the variant C69Y, the abundance fitness was -0.174 ± 0.12.

Consider C69W, for which the abundance fitness is -0.25 ± 0.11.

Regarding C69K, the abundance fitness was found to be 0.108 ± 0.14.

With D64H, the abundance fitness came to 0.195 ± 0.3.

On to D64L, for which the abundance fitness was -0.128 ± 0.087.

As to D64F, the abundance fitness was -0.112 ± 0.2.

For D64V, the abundance fitness was -0.06 ± 0.063.

Turning to D64Y, the abundance fitness was 0.08 ± 0.19.

For D64W, the abundance fitness is -0.047 ± 0.1.

Consider D64T, for which the abundance fitness was -0.126 ± 0.12.

Regarding D64P, the abundance fitness was -0.202 ± 0.2.

In the case of D64I, the abundance fitness was -0.183 ± 0.18.

On to D64G, for which the abundance fitness was -0.059 ± 0.071.

With D64S, the abundance fitness came to 0.013 ± 0.085.

Consider D64A, for which the abundance fitness is -0.191 ± 0.09.

For D64C, the abundance fitness was -0.238 ± 0.18.

Regarding D64K, the abundance fitness stood at 0.011 ± 0.16.

On to D64Q, for which the abundance fitness was -0.057 ± 0.11.

As for D64M, the abundance fitness was -0.308 ± 0.14.

On to D64N, for which the abundance fitness was -0.067 ± 0.3.

For the variant G72C, the abundance fitness was 0.046 ± 0.089.

Turning to G72F, the abundance fitness was -0.353 ± 0.16.

Turning to G72D, the abundance fitness worked out at 0.073 ± 0.089.

For the variant G72S, the abundance fitness stood at 0.004 ± 0.083.

As for G72H, the abundance fitness is -0.356 ± 0.28.

Take G72M: the abundance fitness stood at 0.059 ± 0.089.

For the variant G72L, the abundance fitness was -0.003 ± 0.079.

For G72E, the abundance fitness is -0.018 ± 0.097.

Regarding G72W, the abundance fitness was -0.243 ± 0.1.

For G72R, the abundance fitness stood at 0.006 ± 0.065.

Take G72Q: the abundance fitness was found to be 0.003 ± 0.17.

G72A: the abundance fitness was found to be 0.002 ± 0.061.

For G72T, the abundance fitness is -0.147 ± 0.092.

As to G72N, the abundance fitness was -0.189 ± 0.34.

In the case of G72K, the abundance fitness was -0.139 ± 0.099.

As for G72P, the abundance fitness came out at 0.022 ± 0.12.

G72Y: the abundance fitness was -0.419 ± 0.24.

Take L66S: the abundance fitness was -0.63 ± 0.2.

Consider L66E, for which the abundance fitness was -0.522 ± 0.33.

Turning to L66V, the abundance fitness is -0.235 ± 0.13.

On to L66Y, for which the abundance fitness is -0.736 ± 0.45.

As for L66G, the abundance fitness was -0.673 ± 0.28.

As to L66C, the abundance fitness was -0.398 ± 0.15.

Take L66T: the abundance fitness was -0.589 ± 0.47.

As to L66R, the abundance fitness was -1.11 ± 0.24.

Turning to L66A, the abundance fitness was -0.571 ± 0.12.

Consider L66F, for which the abundance fitness worked out at 0.053 ± 0.18.

As for L66Q, the abundance fitness was -0.557 ± 0.31.

Consider L66W, for which the abundance fitness is -0.521 ± 0.12.

As for S58D, the abundance fitness was -0.183 ± 0.17.

On to S58P, for which the abundance fitness was -0.174 ± 0.088.

As for S58W, the abundance fitness is -0.021 ± 0.12.

On to S58T, for which the abundance fitness was -0.135 ± 0.095.

Consider S58K, for which the abundance fitness was -0.236 ± 0.17.

S58C: the abundance fitness worked out at 0.052 ± 0.11.

Take S58Y: the abundance fitness is -0.226 ± 0.26.

S58F: the abundance fitness was -0.29 ± 0.16.

S58V: the abundance fitness was -0.093 ± 0.079.

For S58E, the abundance fitness was -0.065 ± 0.092.

In the case of S58G, the abundance fitness was found to be 0.015 ± 0.1.

As for S58Q, the abundance fitness is -0.057 ± 0.092.

For S58N, the abundance fitness was -0.007 ± 0.23.

For S58R, the abundance fitness is -0.119 ± 0.075.

P70T: the abundance fitness is -0.108 ± 0.12.

In the case of P70Q, the abundance fitness was -0.084 ± 0.13.

For the variant P70F, the abundance fitness is -0.074 ± 0.12.

As for P70C, the abundance fitness was -0.315 ± 0.19.

P70N: the abundance fitness was -0.089 ± 0.23.

Regarding P70R, the abundance fitness is -0.003 ± 0.067.

On to P70E, for which the abundance fitness is 0.007 ± 0.082.

In the case of P70S, the abundance fitness is -0.001 ± 0.12.

Turning to P70L, the abundance fitness is -0.085 ± 0.11.

On to P70A, for which the abundance fitness is -0.227 ± 0.099.

With P70G, the abundance fitness is -0.185 ± 0.076.

As for P70W, the abundance fitness was -0.087 ± 0.12.

As for P70H, the abundance fitness was -0.107 ± 0.11.

For P70M, the abundance fitness is -0.098 ± 0.12.

As for P70K, the abundance fitness is -0.056 ± 0.24.

P70D: the abundance fitness was determined as 0.077 ± 0.29.

With S73N, the abundance fitness is -0.359 ± 0.33.

In the case of S73R, the abundance fitness is -0.132 ± 0.089.

On to S73P, for which the abundance fitness was -0.048 ± 0.1.

Take S73V: the abundance fitness was -0.025 ± 0.067.

Regarding S73T, the abundance fitness was -0.095 ± 0.12.

For S73I, the abundance fitness is -0.011 ± 0.18.

Take S73Q: the abundance fitness was -0.098 ± 0.11.

In the case of S73G, the abundance fitness turned out to be 0.095 ± 0.081.

As for S73M, the abundance fitness is -0.004 ± 0.14.

Take S73L: the abundance fitness was -0.102 ± 0.14.

Take S73K: the abundance fitness is -0.044 ± 0.092.

As to S73F, the abundance fitness stood at 0.029 ± 0.19.

With S73A, the abundance fitness came to 0.021 ± 0.065.

S73H: the abundance fitness was determined as 0.024 ± 0.15.

Consider V62D, for which the abundance fitness is -0.985 ± 0.35.

For V62Q, the abundance fitness was -0.336 ± 0.13.

Turning to V62G, the abundance fitness is -1.07 ± 0.17.

For the variant V62T, the abundance fitness was -0.03 ± 0.13.

V62W: the abundance fitness is -1.03 ± 0.4.

As to V62A, the abundance fitness is -0.079 ± 0.089.

On to V62E, for which the abundance fitness was -0.999 ± 0.49.

Take V62L: the abundance fitness was -0.114 ± 0.087.

As to V62R, the abundance fitness is -0.91 ± 0.14.

Consider V62H, for which the abundance fitness is -0.598 ± 0.35.

V62C: the abundance fitness stood at 0.181 ± 0.29.

Take V62F: the abundance fitness was -0.345 ± 0.31.

Take V62M: the abundance fitness was -0.181 ± 0.12.

On to T60E, for which the abundance fitness is -0.051 ± 0.11.

For the variant T60W, the abundance fitness was -0.075 ± 0.12.

For T60R, the abundance fitness is -0.038 ± 0.065.

As for T60K, the abundance fitness was -0.003 ± 0.15.

Turning to T60M, the abundance fitness came out at 0.012 ± 0.11.

Take T60Y: the abundance fitness was -0.165 ± 0.2.

Regarding T60C, the abundance fitness came to 0.17 ± 0.15.

Take T60L: the abundance fitness is -0.011 ± 0.071.

For the variant T60D, the abundance fitness was -0.136 ± 0.12.

Take T60A: the abundance fitness turned out to be 0.146 ± 0.081.

In the case of T60P, the abundance fitness was -0.198 ± 0.15.

With T60V, the abundance fitness was 0.004 ± 0.086.

Regarding T60N, the abundance fitness is 0.054 ± 0.11.

As to T60S, the abundance fitness is -0.032 ± 0.093.

Regarding I65K, the abundance fitness was -0.069 ± 0.057.

Take I65T: the abundance fitness is -0.038 ± 0.048.

As for I65P, the abundance fitness was -1.32 ± 0.22.

On to I65M, for which the abundance fitness is -0.051 ± 0.05.

Consider I65C, for which the abundance fitness was -0.053 ± 0.063.

For I65V, the abundance fitness was 0.006 ± 0.037.

With I65F, the abundance fitness was -0.088 ± 0.074.
